According to US20190225650A1, “PEPTIDOMIMETIC MACROCYCLES AND USE THEREOF IN REGULATING HIF1ALPHA” (AILERON THERAPEUTICS, INC., priority 2013, published 2019):
Bridge positions count the residues as written; N and C are the ends. Square brackets hold non-standard residues; d marks the D form. S5 = C=CCCC[C@](C)(N)C(=O)O; Nle = CCCC[C@H](N)C(=O)O

B1: SP-16 (peptide)
peptide: Ac-FIDEEVLA[S5]LVI[S5][Nle]ALDRI-NH2
modifications: staple 9-13
SMILES: CCCC[C@H](NC(=O)[C@]1(C)CCCC=CCCC[C@](C)(NC(=O)[C@H](C)NC(=O)[C@H](CC(C)C)NC(=O)[C@@H](NC(=O)[C@H](CCC(=O)O)NC(=O)[C@H](CCC(=O)O)NC(=O)[C@H](CC(=O)O)NC(=O)[C@@H](NC(=O)[C@H](Cc2ccccc2)NC(C)=O)[C@@H](C)CC)C(C)C)C(=O)N[C@@H](CC(C)C)C(=O)N[C@@H](C(C)C)C(=O)N[C@@H]([C@@H](C)CC)C(=O)N1)C(=O)N[C@@H](C)C(=O)N[C@@H](CC(C)C)C(=O)N[C@@H](CC(=O)O)C(=O)N[C@@H](CCCNC(=N)N)C(=O)N[C@H](C(N)=O)[C@@H](C)CC
B2: SP-38 (peptide)
peptide: Ac-FIDEEVL[Nle][S5]LVI[S5]EALDRI-NH2
modifications: staple 9-13
SMILES: CCCC[C@H](NC(=O)[C@H](CC(C)C)NC(=O)[C@@H](NC(=O)[C@H](CCC(=O)O)NC(=O)[C@H](CCC(=O)O)NC(=O)[C@H](CC(=O)O)NC(=O)[C@@H](NC(=O)[C@H](Cc1ccccc1)NC(C)=O)[C@@H](C)CC)C(C)C)C(=O)N[C@@]1(C)CCCC=CCCC[C@@](C)(C(=O)N[C@@H](CCC(=O)O)C(=O)N[C@@H](C)C(=O)N[C@@H](CC(C)C)C(=O)N[C@@H](CC(=O)O)C(=O)N[C@@H](CCCNC(=N)N)C(=O)N[C@H](C(N)=O)[C@@H](C)CC)NC(=O)[C@H]([C@@H](C)CC)NC(=O)[C@H](C(C)C)NC(=O)[C@H](CC(C)C)NC1=O
B3: SP-31 (peptide)
peptide: Ac-FEDEEVL[Nle][S5]LVI[S5][Nle]ALDRI-NH2
modifications: staple 9-13
SMILES: CCCC[C@H](NC(=O)[C@H](CC(C)C)NC(=O)[C@@H](NC(=O)[C@H](CCC(=O)O)NC(=O)[C@H](CCC(=O)O)NC(=O)[C@H](CC(=O)O)NC(=O)[C@H](CCC(=O)O)NC(=O)[C@H](Cc1ccccc1)NC(C)=O)C(C)C)C(=O)N[C@@]1(C)CCCC=CCCC[C@@](C)(C(=O)N[C@@H](CCCC)C(=O)N[C@@H](C)C(=O)N[C@@H](CC(C)C)C(=O)N[C@@H](CC(=O)O)C(=O)N[C@@H](CCCNC(=N)N)C(=O)N[C@H](C(N)=O)[C@@H](C)CC)NC(=O)[C@H]([C@@H](C)CC)NC(=O)[C@H](C(C)C)NC(=O)[C@H](CC(C)C)NC1=O
B4: SP-34 (peptide)
peptide: Ac-FIDEEVLD[S5]LVI[S5][Nle]ALDRI-NH2
modifications: staple 9-13
SMILES: CCCC[C@H](NC(=O)[C@]1(C)CCCC=CCCC[C@](C)(NC(=O)[C@H](CC(=O)O)NC(=O)[C@H](CC(C)C)NC(=O)[C@@H](NC(=O)[C@H](CCC(=O)O)NC(=O)[C@H](CCC(=O)O)NC(=O)[C@H](CC(=O)O)NC(=O)[C@@H](NC(=O)[C@H](Cc2ccccc2)NC(C)=O)[C@@H](C)CC)C(C)C)C(=O)N[C@@H](CC(C)C)C(=O)N[C@@H](C(C)C)C(=O)N[C@@H]([C@@H](C)CC)C(=O)N1)C(=O)N[C@@H](C)C(=O)N[C@@H](CC(C)C)C(=O)N[C@@H](CC(=O)O)C(=O)N[C@@H](CCCNC(=N)N)C(=O)N[C@H](C(N)=O)[C@@H](C)CC
B5: SP-33 (peptide)
peptide: Ac-FIDEEVE[Nle][S5]LVI[S5][Nle]ALDRI-NH2
modifications: staple 9-13
SMILES: CCCC[C@H](NC(=O)[C@H](CCC(=O)O)NC(=O)[C@@H](NC(=O)[C@H](CCC(=O)O)NC(=O)[C@H](CCC(=O)O)NC(=O)[C@H](CC(=O)O)NC(=O)[C@@H](NC(=O)[C@H](Cc1ccccc1)NC(C)=O)[C@@H](C)CC)C(C)C)C(=O)N[C@@]1(C)CCCC=CCCC[C@@](C)(C(=O)N[C@@H](CCCC)C(=O)N[C@@H](C)C(=O)N[C@@H](CC(C)C)C(=O)N[C@@H](CC(=O)O)C(=O)N[C@@H](CCCNC(=N)N)C(=O)N[C@H](C(N)=O)[C@@H](C)CC)NC(=O)[C@H]([C@@H](C)CC)NC(=O)[C@H](C(C)C)NC(=O)[C@H](CC(C)C)NC1=O
B6: SP-36 (peptide)
peptide: Ac-FIDEEVL[Nle][S5]LEI[S5][Nle]ALDRI-NH2
modifications: staple 9-13
SMILES: CCCC[C@H](NC(=O)[C@H](CC(C)C)NC(=O)[C@@H](NC(=O)[C@H](CCC(=O)O)NC(=O)[C@H](CCC(=O)O)NC(=O)[C@H](CC(=O)O)NC(=O)[C@@H](NC(=O)[C@H](Cc1ccccc1)NC(C)=O)[C@@H](C)CC)C(C)C)C(=O)N[C@@]1(C)CCCC=CCCC[C@@](C)(C(=O)N[C@@H](CCCC)C(=O)N[C@@H](C)C(=O)N[C@@H](CC(C)C)C(=O)N[C@@H](CC(=O)O)C(=O)N[C@@H](CCCNC(=N)N)C(=O)N[C@H](C(N)=O)[C@@H](C)CC)NC(=O)[C@H]([C@@H](C)CC)NC(=O)[C@H](CCC(=O)O)NC(=O)[C@H](CC(C)C)NC1=O
B7: SP-35 (peptide)
peptide: Ac-FIDEEVL[Nle][S5]DVI[S5][Nle]ALDRI-NH2
modifications: staple 9-13
SMILES: CCCC[C@H](NC(=O)[C@H](CC(C)C)NC(=O)[C@@H](NC(=O)[C@H](CCC(=O)O)NC(=O)[C@H](CCC(=O)O)NC(=O)[C@H](CC(=O)O)NC(=O)[C@@H](NC(=O)[C@H](Cc1ccccc1)NC(C)=O)[C@@H](C)CC)C(C)C)C(=O)N[C@@]1(C)CCCC=CCCC[C@@](C)(C(=O)N[C@@H](CCCC)C(=O)N[C@@H](C)C(=O)N[C@@H](CC(C)C)C(=O)N[C@@H](CC(=O)O)C(=O)N[C@@H](CCCNC(=N)N)C(=O)N[C@H](C(N)=O)[C@@H](C)CC)NC(=O)[C@H]([C@@H](C)CC)NC(=O)[C@H](C(C)C)NC(=O)[C@H](CC(=O)O)NC1=O
B8: SP-37 (peptide)
peptide: Ac-FIDEEVL[Nle][S5]LVE[S5][Nle]ALDRI-NH2
modifications: staple 9-13
SMILES: CCCC[C@H](NC(=O)[C@H](CC(C)C)NC(=O)[C@@H](NC(=O)[C@H](CCC(=O)O)NC(=O)[C@H](CCC(=O)O)NC(=O)[C@H](CC(=O)O)NC(=O)[C@@H](NC(=O)[C@H](Cc1ccccc1)NC(C)=O)[C@@H](C)CC)C(C)C)C(=O)N[C@@]1(C)CCCC=CCCC[C@@](C)(C(=O)N[C@@H](CCCC)C(=O)N[C@@H](C)C(=O)N[C@@H](CC(C)C)C(=O)N[C@@H](CC(=O)O)C(=O)N[C@@H](CCCNC(=N)N)C(=O)N[C@H](C(N)=O)[C@@H](C)CC)NC(=O)[C@H](CCC(=O)O)NC(=O)[C@H](C(C)C)NC(=O)[C@H](CC(C)C)NC1=O
B9: SP-26 (peptide)
peptide: Ac-FIDEEVLA[S5]LVI[S5]AALDRI-NH2
modifications: staple 9-13
SMILES: CC[C@H](C)[C@H](NC(=O)[C@H](CCCNC(=N)N)NC(=O)[C@H](CC(=O)O)NC(=O)[C@H](CC(C)C)NC(=O)[C@H](C)NC(=O)[C@H](C)NC(=O)[C@]1(C)CCCC=CCCC[C@](C)(NC(=O)[C@H](C)NC(=O)[C@H](CC(C)C)NC(=O)[C@@H](NC(=O)[C@H](CCC(=O)O)NC(=O)[C@H](CCC(=O)O)NC(=O)[C@H](CC(=O)O)NC(=O)[C@@H](NC(=O)[C@H](Cc2ccccc2)NC(C)=O)[C@@H](C)CC)C(C)C)C(=O)N[C@@H](CC(C)C)C(=O)N[C@@H](C(C)C)C(=O)N[C@@H]([C@@H](C)CC)C(=O)N1)C(N)=O
B10: SP-30 (peptide)
peptide: Ac-EIDEEVL[Nle][S5]LVI[S5][Nle]ALDRI-NH2
modifications: staple 9-13
SMILES: CCCC[C@H](NC(=O)[C@H](CC(C)C)NC(=O)[C@@H](NC(=O)[C@H](CCC(=O)O)NC(=O)[C@H](CCC(=O)O)NC(=O)[C@H](CC(=O)O)NC(=O)[C@@H](NC(=O)[C@H](CCC(=O)O)NC(C)=O)[C@@H](C)CC)C(C)C)C(=O)N[C@@]1(C)CCCC=CCCC[C@@](C)(C(=O)N[C@@H](CCCC)C(=O)N[C@@H](C)C(=O)N[C@@H](CC(C)C)C(=O)N[C@@H](CC(=O)O)C(=O)N[C@@H](CCCNC(=N)N)C(=O)N[C@H](C(N)=O)[C@@H](C)CC)NC(=O)[C@H]([C@@H](C)CC)NC(=O)[C@H](C(C)C)NC(=O)[C@H](CC(C)C)NC1=O
B11: SP-32 (peptide)
peptide: Ac-FIDEEDL[Nle][S5]LVI[S5][Nle]ALDRI-NH2
modifications: staple 9-13
SMILES: CCCC[C@H](NC(=O)[C@H](CC(C)C)NC(=O)[C@H](CC(=O)O)NC(=O)[C@H](CCC(=O)O)NC(=O)[C@H](CCC(=O)O)NC(=O)[C@H](CC(=O)O)NC(=O)[C@@H](NC(=O)[C@H](Cc1ccccc1)NC(C)=O)[C@@H](C)CC)C(=O)N[C@@]1(C)CCCC=CCCC[C@@](C)(C(=O)N[C@@H](CCCC)C(=O)N[C@@H](C)C(=O)N[C@@H](CC(C)C)C(=O)N[C@@H](CC(=O)O)C(=O)N[C@@H](CCCNC(=N)N)C(=O)N[C@H](C(N)=O)[C@@H](C)CC)NC(=O)[C@H]([C@@H](C)CC)NC(=O)[C@H](C(C)C)NC(=O)[C@H](CC(C)C)NC1=O

Molecular target: T1, His6-tagged p300 (AA 323-423) (UniProt Q09472 323-423)
T1 construct: range 323-423; also called p300-CH; not shown: His6 tag
Assay: TR-FRET HIF1a/p300 displacement; grade = IC50 >700 nM
Description: The ability of peptides to displace HIF1α c-terminal trans-activation domain from p300-CH was measured by a TR FRET assay. […] The complex was diluted to 300 nM final in complete assay media and competitor peptides were added. The complete assay media contained 150 mM NaCl (Sigma +S5150 or equivalent), 20 mM HEPES pH 7.4 (Boston Bioproducts, Ashland, Mass.; #BB-2076), 7.5 mM CHAPS (Thermo #28300 or equivalent), and 1 mM DTT. Protein and peptide were incubated at room temperature for 1 hour before the addition of anti-Flag-K and anti-6×HIS-D2 (CisBio, Bedford Mass.) HTRF reconstitution buffer (50 mM Phosphate pH 7, 0.8 Potassium Flouride, BSA 0.2%)¹ to a final concentration of 0.5 μM and 4 nM respectively. The reaction continued for an additional two hours at room temperature. The reaction was read on a TECAN F500 plate reader with settings recommended by CisBio. The ratio of donor to acceptor fluorescence was calculated. The resulting data was analyzed with Graphpad Prism 5.0. IC50 values were calculated for both proteins using the One Site Fit-LogIC50 equation and presented in the column “IC₅₀ (nM) (HIF1α_p300 Displacement+CHAPS)” of Table 6. ¹ Cisbio USA, Bedford, Mass.; 61HISDLB (lot 007A), 61FG2KLB (024A), HTRF Buffer (62RB3RDF)

T1 sequence (Q09472 323-423 limits assumed): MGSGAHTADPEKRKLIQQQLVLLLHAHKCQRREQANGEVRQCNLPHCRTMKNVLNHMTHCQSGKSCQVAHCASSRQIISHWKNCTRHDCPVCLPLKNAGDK

IC50, > 700 nM:
B1
FIDEEVLLALVIAAALDRI (not fully specified; Ac-FIDEEVL-Nle-$-LVI-$-AALDRI-NH2) [SP-20]
B2
B3
B4
B5
B6
B7
B8
FIDEEVLLALVIALALARI (not fully specified; Ac-FIDEEVL-Nle-$-LVI-$-Nle-ALARI-NH2) [SP-23]
B9
B10
B11
